Results from publication PMC3300031 (Nucleic Acids Research, 2011).
Positions count from the first letter of the chain named. Numbers in names are those of the source.

B1: Pyrococcus furiosus NurA (Pf NurA), wild type (enzyme, UniProt Q8U1N8 1-451, looked up)
chain: MRLLSKQSIERITKILLDELENVRENEQIRNIINSWKPLPSPEKSSIYAVDGSRSVSRLSGTVIYFLSALAVGSGKQLRLSYANAIKSNYGTSDQIVRMQMETLENMLGYLAYRKLEGEKRAILMDGTLTGSLVRPPVYPEDIRSLNVMRALIGESDFENLLNEFLEKLRDHYRKVEEHLEKNGNYDSPILTDNVVEKLRKKYIDTKVIAYGSGKVKVKIPRKALGYSPRVIPIEVLESSRGKSVDELLQELDEEKVELYLGKDDIYDALHMTLSYIEYLYSIDKLLEVKNLAYIAKSFYTKTLARTLGVEIVDTALLDAVIRTLIGHEKEGYLEIEHAVVPPKWSFPDFLLSKFRNIEKLIDKGIHLAYVRFEQGDVIYMLQSTTNIEKILPLILHHKAGGYLRPLQLAHHGVKISYKEARHTLEALINALRNRDPALKIFVKYGRSPLE
B2: Pf NurA R11A/I12E/S60Y dimeric interface mutant (enzyme, Pyrococcus furiosus)
chain: B1 chain with R11A, I12E, S60Y
B3: Pf NurA ΔN26 dimeric interface mutant (first 26 residues deleted) (domain or fragment, Pyrococcus furiosus, UniProt Q8U1N8 27-451, looked up)
chain: EQIRNIINSWKPLPSPEKSSIYAVDGSRSVSRLSGTVIYFLSALAVGSGKQLRLSYANAIKSNYGTSDQIVRMQMETLENMLGYLAYRKLEGEKRAILMDGTLTGSLVRPPVYPEDIRSLNVMRALIGESDFENLLNEFLEKLRDHYRKVEEHLEKNGNYDSPILTDNVVEKLRKKYIDTKVIAYGSGKVKVKIPRKALGYSPRVIPIEVLESSRGKSVDELLQELDEEKVELYLGKDDIYDALHMTLSYIEYLYSIDKLLEVKNLAYIAKSFYTKTLARTLGVEIVDTALLDAVIRTLIGHEKEGYLEIEHAVVPPKWSFPDFLLSKFRNIEKLIDKGIHLAYVRFEQGDVIYMLQSTTNIEKILPLILHHKAGGYLRPLQLAHHGVKISYKEARHTLEALINALRNRDPALKIFVKYGRSPLE

Legend:
[1] = target: the molecule itself; experiment: AUC + SEC
[2] = target: the molecule itself; experiment: SEC

Protein | stoichiometry N [1] | stoichiometry N [2]
B1 | 2 | –
B2 | – | ~2
B3 | – | 4
